Assay [1] has as its target T1, huCD39 on the cell surface (293T/17-huCD39 cells) (human, UniProt P49961 1-510).
T1 sequence (looked up): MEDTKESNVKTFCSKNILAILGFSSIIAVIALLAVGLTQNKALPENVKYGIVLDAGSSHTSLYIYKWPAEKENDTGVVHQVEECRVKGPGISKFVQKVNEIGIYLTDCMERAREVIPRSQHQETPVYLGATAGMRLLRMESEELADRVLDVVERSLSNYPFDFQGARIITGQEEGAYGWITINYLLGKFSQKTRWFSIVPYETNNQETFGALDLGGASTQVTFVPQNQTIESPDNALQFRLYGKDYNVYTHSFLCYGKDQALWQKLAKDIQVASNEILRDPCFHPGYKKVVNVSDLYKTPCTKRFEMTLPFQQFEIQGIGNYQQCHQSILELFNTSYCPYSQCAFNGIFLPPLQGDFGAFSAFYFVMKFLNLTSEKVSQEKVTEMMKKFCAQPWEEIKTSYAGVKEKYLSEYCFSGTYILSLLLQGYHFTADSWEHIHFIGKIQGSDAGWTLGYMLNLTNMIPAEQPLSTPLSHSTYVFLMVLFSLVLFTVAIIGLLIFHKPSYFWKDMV
The assay can be described thus: cell-based or functional assay.

Assay [2] concerns the target T1, huCD39 on the cell surface …. The assay can be described thus: flow cytometry on 293T/17-huCD39 cells. The protocol:
Flow cytometry assay: recombinant host cell line 293T/17-huCD39 cells expressing huCD39 were used to evaluate the binding ability of the humanized antibody to the natural CD39 protein on the cell surface. The recombinant cells were resuspended in PBS buffer, 2×10⁶ cells were added to a 96-well U-plate, and a certain gradient dilution range of the humanized antibody was incubated for 1h at 4° C. in a refrigerator or on ice. The mixture was centrifuged at 1500 rpm for 3 min at 4° C., and washed three times with PBS buffer. Then, incubated for 30 min at 4° C. in the refrigerator or on ice with diluted Alexa Fluor 488-labeled goat anti-human polyclonal antibody (pAb): Goat anti-Human IgG (H+L) Cross-Adsorbed Secondary Antibody, Alexa Fluor 488 (thermo), and finally the cells were washed three times with PBS as described above and analyzed in MACSQuant flow cytometry. Data plots were generated and affinity data were counted using GraphPad Prism software (FIG. 5). The results are shown in Table 5, and the EC₅₀ values of 293T/17-huCD39 humanized antibody were all at the level of 10⁻⁹M.

Assay [3] concerns the target T2, huCD39 recombinant protein (human, UniProt P49961 38-478).
T2 construct: the entry is the extracellular domain and ends in a histidine tag; also called soluble huCD39 protein; human CD39 extracellular domain recombinant protein
T2 sequence: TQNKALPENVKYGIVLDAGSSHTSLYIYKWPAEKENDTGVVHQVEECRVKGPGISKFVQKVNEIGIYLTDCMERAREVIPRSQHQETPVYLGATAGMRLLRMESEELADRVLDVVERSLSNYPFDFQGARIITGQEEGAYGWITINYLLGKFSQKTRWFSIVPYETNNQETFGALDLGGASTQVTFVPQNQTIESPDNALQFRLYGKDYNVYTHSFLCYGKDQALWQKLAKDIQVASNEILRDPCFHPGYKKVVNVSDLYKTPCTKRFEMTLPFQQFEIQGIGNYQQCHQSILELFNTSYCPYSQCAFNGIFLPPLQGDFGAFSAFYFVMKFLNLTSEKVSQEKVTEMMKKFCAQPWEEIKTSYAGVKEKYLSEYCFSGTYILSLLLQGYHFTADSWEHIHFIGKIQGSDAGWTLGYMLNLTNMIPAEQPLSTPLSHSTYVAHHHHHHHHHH
The assay can be described thus: indirect ELISA, huCD39 recombinant protein coated at 1 ug/mL. On the procedure: The next day, washed 5 times with PBS buffer and blocked with 200 μL/well of 2% skim milk powder for 1 h. A certain dose range of CD39 humanized antibody was added, and incubated for 1 h at room temperature. Then, washed 5 times with PBST washing buffer (PBS, 0.05% Tween 20), 100 μL HRP-labeled secondary antibody was added to each well, and incubated for 30 min at room temperature. The plates were washed 5 times again, and TMB (Life Technologies) was added for color development for 5 to 10 min. Finally, 1N HCl was added to terminate the reaction, and the OD value was measured at 450 nm. GraphPad Prism software was used to generate data plots and count the affinity data (FIG. 4). The EC₅₀ values of the binding activity of the three humanized antibodies were all at the level of 10⁻¹⁰ M.
(An ELISA detects its analyte on a solid surface through an enzyme-linked reagent.)

Assay [4] addresses T1, huCD39 on the cell surface …. The assay can be described thus: cell-based or functional assay. This is another data set of the same source.

B1: h201H3.1+h201L1.1dmut G2C (antibody, human IgG2, kappa, V domains shown)
VH: QVQLVESGGGVVQPGRSLRLSCAASGFTFSDYGMHWVRQAPGKGLEWVAYISSGSSIMYYADTVKGRFTISRDNSKNTLYLQMNSLRAEDTAVYYCARDLYYDHVLDYWGQGTTVTVSS
VL: DIQMTQSPSSLSASVGDRVTITCRASQEIRGYLIWLQQKPGKAIKRLIYAASTLESGVPSRFSGSRSGSDYTLTISSLQPEDFATYYCLQYTSYPRTFGQGTKVEIKR
notes: Humanized antibody, expressed in 293F cells
B1: in assay [1], the “EC50 of reversal of ATP-mediated proliferation inhibition of human CD4+ T cells (CFSE, flow cytometry)” value came out at 5.08 nM and the “EC50 of reversal of ATP-mediated proliferation inhibition of human CD8+ T cells (CFSE, flow cytometry)” value amounted to 7.08 nM. In assay [2], the Bottom is -1.33; the EC50 – broadly, the concentration needed to bring the measured effect to its halfway point – amounted to 3.31 nM; the Top came out at 280. In addition, in assay [3], the Bottom stood at 0.109 OD450, the EC50 worked out at 0.433 nM and the Top worked out at 1.03 OD450. Moreover, in assay [4], the “Blocking of ATPase activity on cell surface (293T/17-huCD39, CellTiter Glo): Bottom” value (from here on “Blocking of ATPase activity … Bottom”) worked out at 39600; the “Blocking of ATPase activity on cell surface (293T/17-huCD39, CellTiter Glo): EC50” value (shortened to “Blocking of ATPase activity … EC50”) stood at 0.038 nM; the “Blocking of ATPase activity on cell surface (293T/17-huCD39, CellTiter Glo): Top” value (from here on “Blocking of ATPase activity … Top”) worked out at 245000.

B2: h201H3.1+h219L1.1 G2C (antibody, human IgG2, kappa, V domains shown)
VH: QVQLVESGGGVVQPGRSLRLSCAASGFTFSDYGMHWVRQAPGKGLEWVAYISSGSSIMYYADTVKGRFTISRDNSKNTLYLQMNSLRAEDTAVYYCARDLYYDHVLDYWGQGTTVTVSS
VL: DIQMTQSPSSLSASVGDRVTITCRASQEVSGYLNWLQQKPGKAIKRLIYAASTLESGVPSRFSGSRSGSDYTLTISSLQPEDFATYYCLQYASYPRTFGQGTKVEIKR
notes: as for B1
For B2, in assay [1], the “EC50 of reversal of ATP-mediated proliferation inhibition of human CD4+ T cells (CFSE, flow cytometry)” value was 0.646 nM and the “EC50 of reversal of ATP-mediated proliferation inhibition of human CD8+ T cells (CFSE, flow cytometry)” value worked out at 1.35 nM. Besides, in assay [2], the Bottom stood at 8.18, a half-maximal response (EC50) required 3.1 nM and the Top was 266. In assay [3], the Bottom stood at 0.085 OD450, the EC50 is 0.709 nM and the Top is 0.991 OD450. In addition, in assay [4], the “Blocking of ATPase activity … Bottom” value came to 38800; the “Blocking of ATPase activity … EC50” value worked out at 0.077 nM; the “Blocking of ATPase activity … Top” value came to 250000.

B3: M201 HuH1L1(D-E) G2C (antibody, human IgG2, kappa, V domains shown)
VH: EVQLVESGGGLVQPGGSLRLSCAASGFTFSDYGMHWVRQAPGKGLEWVSYISSGSSIMYYADTVKGRFTISRDNAKNSLYLQMNSLRAEDTAVYYCARDLYYDHVLDYWGQGTLLTVSS
VL: DIQMTQSPSSLSASVGDRVTITCRASQEIRGYLIWLQQKPGGAIKRLIYAASTLESGVPSRFSGSRSGTDFTLTISSLQPEDFATYYCLQYTSYPRTFGGGTKVEIKR
notes: as for B1
Regarding B3, in assay [1], the “EC50 of reversal of ATP-mediated proliferation inhibition of human CD4+ T cells (CFSE, flow cytometry)” value came out at 25.5 nM and the “EC50 of reversal of ATP-mediated proliferation inhibition of human CD8+ T cells (CFSE, flow cytometry)” value came out at 60.4 nM. In addition, in assay [2], the Bottom was -2.15, the EC50 worked out at 2.94 nM and the Top is 329. Moreover, in assay [3], the Bottom is 0.068 OD450, the EC50 turned out to be 0.514 nM and the Top amounted to 1.18 OD450. In assay [4], the “Blocking of ATPase activity … Bottom” value came to 31300; the “Blocking of ATPase activity … EC50” value is 0.026 nM; the “Blocking of ATPase activity … Top” value came to 152000.

(Values after US20220411498A1 (JACOBIO PHARMACEUTICALS, published 2022).)
